These results are taken from patent US20250340607A1 (UNIVERSITY OF CHICAGO, published 2025).

For the assay, the target named is T1, murine Flt3 (R&D 768-F3-050) (murine, UniProt Q00342 28-544).
T1 construct: Bought recombinant protein coated on the ELISA plate; also called receptor for Flt3L; recombinant CD135
T1 sequence (looked up): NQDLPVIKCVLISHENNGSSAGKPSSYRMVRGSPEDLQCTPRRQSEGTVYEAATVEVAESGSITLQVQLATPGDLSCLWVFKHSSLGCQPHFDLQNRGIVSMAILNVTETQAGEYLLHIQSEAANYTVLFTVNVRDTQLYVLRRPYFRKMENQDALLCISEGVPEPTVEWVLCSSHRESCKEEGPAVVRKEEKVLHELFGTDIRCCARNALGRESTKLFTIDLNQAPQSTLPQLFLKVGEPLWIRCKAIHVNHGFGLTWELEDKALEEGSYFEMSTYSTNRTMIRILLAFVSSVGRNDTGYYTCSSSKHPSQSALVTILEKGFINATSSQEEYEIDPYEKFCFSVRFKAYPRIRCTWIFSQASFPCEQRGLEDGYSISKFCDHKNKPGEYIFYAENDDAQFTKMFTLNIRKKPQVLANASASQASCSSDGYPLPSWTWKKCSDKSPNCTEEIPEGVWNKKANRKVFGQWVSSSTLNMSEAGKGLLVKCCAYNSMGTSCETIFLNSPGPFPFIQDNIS
Kind of assay: ELISA: plate coated with murine Flt3, Flt3L variants titrated, detection with biotinylated anti-Flt3L and avidin-HRP. How it is done:
Protein was cloned, produced, and purified as described in methods. Following purification, bands were confirmed at the expected sizes via SDS-PAGE under reducing conditions (WT at around 30 KDa with multiple bands due to glycosylation differences and Flt3L-MSA at around 75 KDa). Binding of each protein to the receptor for Flt3L (murine Flt3, R&D 768-F3-050) was then confirmed via ELISA. Briefly, high binding plates were coated overnight with 50 μL of 1 nM protein in a Carb/Bicarb buffer pH of 9. The plates were then washed and blocked using R&D blocking buffer before the addition of Flt3L variants at different concentrations in blocking buffer. Detection occurred using biotinylated αFlt3L and subsequent incubation with avidin-HRP. Binding was then visualized via incubation with TMB solution until highest concentrations reached an approximate absorbance of 1 and the reaction was stopped using 2N H2SO4.
High-bind plates (Corning #9018) were coated by incubating overnight at 4 C with 10 nM recombinant CD135 (R&D 768-F3-050) in […] sodium bicarbonate buffer at pH 9.2. Following coating, plates were washed in PBST before blocking in 1× reagent diluent (R&D DY995) for 2 hours at RT. Samples were then diluted to the indicated concentration in triplicate using the same reagent diluent. […] Quantification occurred by reading the absorbance at 450 nm and 570 nm.

B1: wild type murine Flt3L (ligand)
chain: MTPDCYFSHSPISSNFKVKFRELTDHLLKDYPVTVAVNLQDEKHCKALWSLFLAQRWIEQLKTVAGSKMQTLLEDVNTEIHFVTSCTFQPLPECLRFVQTNISHLLKDTCTQLLALKPCIGKACQNFSRCLEVQCQPDSSTLLPPRSPIALEATELPEPRPRQ
notes: Made in HEK293F cells and glycosylated (multiple bands around 30 kDa); also called WT Flt3L; WT; not shown: it was purified over a HisTrap HP column, so it probably carries a His tag
Molecule B1 registered a Kd of 0.16 nM.

B2: Flt3L fused to Mouse Serum Albumin (Flt3L-MSA) (other)
chain: MTPDCYFSHSPISSNFKVKFRELTDHLLKDYPVTVAVNLQDEKHCKALWSLFLAQRWIEQLKTVAGSKMQTLLEDVNTEIHFVTSCTFQPLPECLRFVQTNISHLLKDTCTQLLALKPCIGKACQNFSRCLEVQCQPDSSTLLPPRSPIALEATELPEPRPRQGGGGSGGGGSEAHKSEIAHRYNDLGEQHFKGLVLIAFSQYLQKCSYDEHAKLVQEVTDFAKTCVADESAANCDKSLHTLFGDKLCAIPNLRENYGELADCCTKQEPERNECFLQHKDDNPSLPPFERPEAEAMCTSFKENPTTFMGHYLHEVARRHPYFYAPELLYYAEQYNEILTQCCAEADKESCLTPKLDGVKEKALVSSVRQRMKCSSMQKFGERAFKAWAVARLSQTFPNADFAEITKLATDLTKVNKECCHGDLLECADDRAELAKYMCENQATISSKLQTCCDKPLLKKAHCLSEVEHDTMPADLPAIAADFVEDQEVCKNYAEAKDVFLGTFLYEYSRRHPDYSVSLLLRLAKKYEATLEKCCAEANPPACYGTVLAEFQPLVEEPKNLVKTNCDLYEKLGEYGFQNAILVRYTQKAPQVSTPTLVEAARNLGRVGTKCCTLPEDQRLPCVEDYLSAILNRVCLLHEKTPVSEHVTKCCSGSLVERRPCFSALTVDETYVPKEFKAETFTFHSDICTLPEKEKQIKKQTALAELVKHKPKATAEQLKTVMDDFAQFLDTCCKAADKDTCFSTEGPNLVTRCKDALAHHHHHH
notes: also called MSA fused Flt3L; Flt3L-SA
For B2, the dissociation constant (Kd) is 0.16 nM.
